Experimental data published in patent US20220001043A1 (IMAGINAB, published 2022).

Assays:
[1] = target: T1, human CD8 (Homo sapiens, UniProt P01732 22-235; A6NJW9 19-210); test: binding to CD8 glycoprotein; method not given
T1 construct: CD8 as carried by purified human T cells, HPB-ALL leukemia cells, human tissues and CD8+ cells in patients; also called huCD8; CD8 glycoprotein

[2] = target: T1, human CD8; test: cell binding; read as HPB-ALL cells ('respectively' taken to mean the cell types, as in p-1525)
[3] = target: T1, human CD8; test: cell binding; read as purified human T cells ('respectively' taken to mean the cell types, as in p-1525)
[4] = target: T1, human CD8; test: flow cytometry on human T cells carrying CD8
Method: (§1) The binding affinity and specificity of IAB22M2C and Zr-Df-IAB22M2C to human CD8 expressed on cell surfaces were evaluated by flow cytometry for a several cell types, including HPB-ALL leukemia cells (DSMZ, Braunschweig, Germany), purified human T cells, and PC3 prostate cancer cells engineered to express huCD8 (ImaginAb, Inc.).

[5] = target: T1, human CD8; test: flow cytometry on HPB-ALL cell line carrying CD8
Method: as §1

T1 sequence (P01732 22-235 limits assumed, chain 1 of 2): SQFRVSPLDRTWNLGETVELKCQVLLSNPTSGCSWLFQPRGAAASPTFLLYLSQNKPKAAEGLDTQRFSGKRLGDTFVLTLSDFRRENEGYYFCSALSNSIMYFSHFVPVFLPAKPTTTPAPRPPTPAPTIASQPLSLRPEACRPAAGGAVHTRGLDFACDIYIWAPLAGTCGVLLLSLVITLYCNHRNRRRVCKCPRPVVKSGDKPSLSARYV
T1 sequence (A6NJW9 19-210 C51R/T71A limits assumed, chain 2 of 2): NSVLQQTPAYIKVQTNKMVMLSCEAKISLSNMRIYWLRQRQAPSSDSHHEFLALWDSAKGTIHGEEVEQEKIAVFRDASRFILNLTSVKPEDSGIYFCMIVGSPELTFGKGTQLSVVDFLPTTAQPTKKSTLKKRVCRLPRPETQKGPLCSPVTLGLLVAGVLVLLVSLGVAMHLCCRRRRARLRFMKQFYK

B1: 89Zr-Df-IAB22M2C (other)
chain: DVQITQSPSSLSASVGDRVTITCRTSRSISQYLAWYQQKPGKVPKLLIYSGSTLQSGVPSRFSGSGSGTDFTLTISSLQPEDVATYYCQQHNENPLTFGGGTKVEIKGSTSGGGSGGGSGGGGSSEVQLVESGGGLVQPGGSLRLSCAASGFNIKDTYIHFVRQAPGKGLEWIGRIDPANDNTLYASKFQGKATISADTSKNTAYLQMNSLRAEDTAVYYCGRGYGYYVFDHWGQGTLVTVSSEPKSSDKTHTCPPCPPCGGGSSGGGSGGQPREPQVYTLPPSREEMTKNQVSLTCLVKGFYPSDIAVEWESNGQPENNYKTTPPVLDSDGSFFLYSKLTVDKSRWQQGNVFSCSVMHEALHNHYTQKSLSLSPG
modifications: deferoxamine (Df) conjugated to lysine residues, radiolabeled with 89Zr
notes: Radiolabeled drug product; Same polypeptide as m1; For patients it is formulated together with cold unconjugated IAB22M2C; also called 89Zr-Df-IAB22M Lot: 42-040A; CD8 PET tracer
EC50 [1]: 0.4 nM

B2: Df-IAB22M2C (other)
chain: B1 chain
modifications: deferoxamine (Df) conjugated to lysine residues; chelator:minibody ratio of approximately 2
notes: Same polypeptide as m1; also called desferrioxamine-conjugated IAB22M2C; Df-IAB22M2C critical intermediate
EC50 [2]: 0.3 nM
EC50 [3]: 0.4 nM

B3: IAB22M2C (other)
chain: B1 chain
notes: also called IAB22M2C Mb; IAB22M2C minibody
EC50 [4]: 0.4 nM
EC50 [5]: 0.3 nM
